Consider four molecules from US20110263454A1, “Methods of Identifying Functional Characteristics of Promoters, Transcription Modifying Proteins and Transcription Modulating Agents” (Salk Institute for Biological Studies, priority 2008, published 2011).

One test has as its system hPPARg1 promoter. As to the kind of experiment: NHR-promoter luciferase screen, hPPARg1 promoter. The class given is cell-based, human. To be noted: for Luc. act., normalized to lacZ / Normalized Luc. act., normalized to control: PPARG1 promoter, hormone receptor with or without its ligand; for Normalized Luc. act., normalized to control: relative to control; for Results of assays of transcription factor (+/- ligand) with hPPARg1: Table 6d, luciferase activity relative to control (control = 1.00). In outline: (§1)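 CV-1 cells were co-transfected with 50 ng NHR (homodimer or NHR/RXR heterodimer), 100 ng promoter-luciferase construct and 50 ng LacZ. Luciferase was normalized to LacZ and to a no-NHR/no-ligand control.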

A further test relates to mPer1 promoter. In words: NHR-promoter luciferase screen, mPer1 promoter. The format is cell-based, mouse. Conditions: for Luc. act., normalized to lacZ / Normalized Luc. act., normalized to control: Per1 promoter reporter, co-transfected HR, with or without its ligand; for Normalized Luc. act., normalized to control: relative to control; for luciferase activity normalized to lacZ activity and to a control, mPer1: mPer1 promoter-luciferase, CV-1 cells, NHR +/- ligand, control = 1.00. In outline:
as §1

In the next test the test system is mAdiponectin promoter. As to the kind of experiment: NHR-promoter luciferase screen, mAdiponectin promoter. The class given is cell-based, mouse. Conditions: for Luc. act., normalized to lacZ / Normalized Luc. act., normalized to control: Adiponectin, HR component without or with its ligand; for mAdiponectin promoter reporter activity: transcription factor +/- ligand, control = 1.00. In outline: as §1

For a further test, the system named is RevErba promoter. In words: NHR-promoter luciferase screen, RevErba (RVRa) promoter. The format is cell-based. The arrangement: key to mRevErba promoter reporter activity / Normalized Luc. act., normalized to control: luciferase activity normalized to lacZ and to control (no NHR/ligand). To be noted: for Luc. act., normalized to lacZ / Normalized Luc. act., normalized to control / negative reciprocal of normalized Luc. act. (fold repression; Table 33) / normalized Luc. act. on a logarithmic scale (column without head, Table 33): RVRa promoter; for Luc. act., normalized to lacZ / Normalized Luc. act., normalized to control: HR component without or with ligand; for negative reciprocal of normalized Luc. act. (fold repression; Table 33): given only where activity is below control; for normalized Luc. act. on a logarithmic scale (column without head, Table 33): log10 of activity normalized to control; for mRevErba promoter reporter activity: transcription factor +/- ligand, control = 1.00. In short, it runs like this: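 CV-1 cells co-transfected with NHR (pcDNA3.1, C-terminal V5H6 tag) as homodimer or RXR heterodimer, RevErbα promoter–luciferase reporter and LacZ transfection control; ligand added where applicable. Luciferase normalized to LacZ and to no-NHR/no-ligand control.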

The subject of another test is mPgc1b promoter. In words: NHR-promoter luciferase screen, mPgc1b promoter. The format is cell-based, mouse. To be noted: for Luc. act., normalized to lacZ / Normalized Luc. act., normalized to control: PGC1b promoter reporter, co-transfected HR, without or with its ligand; for Normalized Luc. act., normalized to control: relative to control; for luciferase activity normalized to lacZ activity and to a control, mPgc1b: mPgc1b promoter-luciferase, CV-1 cells, NHR +/- ligand, control = 1.00. In outline: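 CV-1 cells co-transfected with NHR homodimer or NHR/RXR heterodimer (pcDNA3.1, C-terminal V5H6 tag), promoter-luciferase construct and LacZ transfection control. Orphan receptors screened without ligand. Luciferase normalized to LacZ and to no-NHR/no-ligand control.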

B1: hMR: Mineralocorticoid Receptor (NR3C2, MR), cDNA driver (protein, UniProt P08235 1-984, looked up)
Mineralocorticoid receptor: METKGYHSLPEGLDMERRWGQVSQAVERSSLGPTERTDENNYMEIVNVSCVSGAIPNNSTQGSSKEKQELLPCLQQDNNRPGILTSDIKTELESKELSATVAESMGLYMDSVRDADYSYEQQNQQGSMSPAKIYQNVEQLVKFYKGNGHRPSTLSCVNTPLRSFMSDSGSSVNGGVMRAVVKSPIMCHEKSPSVCSPLNMTSSVCSPAGINSVSSTTASFGSFPVHSPITQGTPLTCSPNVENRGSRSHSPAHASNVGSPLSSPLSSMKSSISSPPSHCSVKSPVSSPNNVTLRSSVSSPANINNSRCSVSSPSNTNNRSTLSSPAASTVGSICSPVNNAFSYTASGTSAGSSTLRDVVPSPDTQEKGAQEVPFPKTEEVESAISNGVTGQLNIVQYIKPEPDGAFSSSCLGGNSKINSDSSFSVPIKQESTKHSCSGTSFKGNPTVNPFPFMDGSYFSFMDDKDYYSLSGILGPPVPGFDGNCEGSGFPVGIKQEPDDGSYYPEASIPSSAIVGVNSGGQSFHYRIGAQGTISLSRSARDQSFQHLSSFPPVNTLVESWKSHGDLSSRRSDGYPVLEYIPENVSSSTLRSVSTGSSRPSKICLVCGDEASGCHYGVVTCGSCKVFFKRAVEGQHNYLCAGRNDCIIDKIRRKNCPACRLQKCLQAGMNLGARKSKKLGKLKGIHEEQPQQQQPPPPPPPPQSPEEGTTYIAPAKEPSVNTALVPQLSTISRALTPSPVMVLENIEPEIVYAGYDSSKPDTAENLLSTLNRLAGKQMIQVVKWAKVLPGFKNLPLEDQITLIQYSWMCLSSFALSWRSYKHTNSQFLYFAPDLVFNEEKMHQSAMYELCQGMHQISLQFVRLQLTFEEYTIMKVLLLLSTIPKDGLKSQAAFEEMRTNYIKELRKMVTKCPNNSGQSWQRFYQLTKLLDSMHDLVSDLLEFCFYTFRESHALKVEFPAMLVEIISDQLPKVESGNAKPLYFHRK
Regarding B1, in the test with hPPARg1 promoter, the “Luc. act., normalized to lacZ” value is reported as 56.4; the “Normalized Luc. act., normalized to control” value worked out at 0.8; the “Results of assays of transcription factor (+/- ligand) with hPPARg1” value (shortened to “Results”) stood at 0.82. Further, in the test with mPer1 promoter, the “Luc. act., normalized to lacZ” value is on record as 351.9; the “Normalized Luc. act., normalized to control” value was 2.4; the “luciferase activity normalized to lacZ activity and to a control, mPer1” value (“luciferase activity normalized … mPer1” below) is 2.44. In the test with mAdiponectin promoter, the “Luc. act., normalized to lacZ” value is 32.3; the “Normalized Luc. act., normalized to control” value is reported as 0.5; the “mAdiponectin promoter reporter activity” value stood at 0.51. Further, in the test with RevErba promoter, the “Luc. act., normalized to lacZ” value is given as 13.7; the “Normalized Luc. act., normalized to control” value was found to be 0.5; the “negative reciprocal of normalized Luc. act. (fold repression; Table 33)” value is recorded as −2.036; the “normalized Luc. act. on a logarithmic scale (column without head, Table 33)” value was −0.31. Also, in the test on RevErba promoter, the “mRevErba promoter reporter activity” value was 0.49. Further, in the test with mPgc1b promoter, the “Luc. act., normalized to lacZ” value is on record as 5.7; the “Normalized Luc. act., normalized to control” value was 0.5; the “luciferase activity normalized to lacZ activity and to a control, mPgc1b” value (from here on “luciferase activity normalized … mPgc1b”) turned out to be 0.48.

B2: CTF1: COUP-TF1 (NR2F1), cDNA driver (protein, UniProt P10589 1-423, looked up)
COUP transcription factor 1: MAMVVSSWRDPQDDVAGGNPGGPNPAAQAARGGGGGAGEQQQQAGSGAPHTPQTPGQPGAPATPGTAGDKGQGPPGSGQSQQHIECVVCGDKSSGKHYGQFTCEGCKSFFKRSVRRNLTYTCRANRNCPIDQHHRNQCQYCRLKKCLKVGMRREAVQRGRMPPTQPNPGQYALTNGDPLNGHCYLSGYISLLLRAEPYPTSRYGSQCMQPNNIMGIENICELAARLLFSAVEWARNIPFFPDLQITDQVSLLRLTWSELFVLNAAQCSMPLHVAPLLAAAGLHASPMSADRVVAFMDHIRIFQEQVEKLKALHVDSAEYSCLKAIVLFTSDACGLSDAAHIESLQEKSQCALEEYVRSQYPNQPSRFGKLLLRLPSLRTVSSSVIEQLFFVRLVGKTPIETLIRDMLLSGSSFNWPYMSIQCS
With B2, in the test with hPPARg1 promoter, the “Luc. act., normalized to lacZ” value came out at 39.7; the “Normalized Luc. act., normalized to control” value is recorded as 0.6; the “Results” value is recorded as 0.58. In the test on mPer1 promoter, the “Luc. act., normalized to lacZ” value was determined as 283.8; the “Normalized Luc. act., normalized to control” value stood at 2.0; the “luciferase activity normalized … mPer1” value is 1.97. In the test on mAdiponectin promoter, the “Luc. act., normalized to lacZ” value is 118.7; the “Normalized Luc. act., normalized to control” value was found to be 1.9; the “mAdiponectin promoter reporter activity” value was determined as 1.89. In addition, in the test on RevErba promoter, the “Luc. act., normalized to lacZ” value stood at 18.5; the “Normalized Luc. act., normalized to control” value was determined as 0.7; the “negative reciprocal of normalized Luc. act. (fold repression; Table 33)” value was −1.51; the “normalized Luc. act. on a logarithmic scale (column without head, Table 33)” value was −0.18. Also, the “mRevErba promoter reporter activity” value in the test on RevErba promoter was determined as 0.66. Further, in the test on mPgc1b promoter, the “Luc. act., normalized to lacZ” value is 6.7; the “Normalized Luc. act., normalized to control” value stood at 0.6; the “luciferase activity normalized … mPgc1b” value was 0.57.

B3: CTF3: COUP-TF3 (NR2F6), cDNA driver (protein, UniProt P10588 1-404, looked up)
Nuclear receptor subfamily 2 …: MAMVTGGWGGPGGDTNGVDKAGGYPRAAEDDSASPPGAASDAEPGDEERPGLQVDCVVCGDKSSGKHYGVFTCEGCKSFFKRSIRRNLSYTCRSNRDCQIDQHHRNQCQYCRLKKCFRVGMRKEAVQRGRIPHSLPGAVAASSGSPPGSALAAVASGGDLFPGQPVSELIAQLLRAEPYPAAAGRFGAGGGAAGAVLGIDNVCELAARLLFSTVEWARHAPFFPELPVADQVALLRLSWSELFVLNAAQAALPLHTAPLLAAAGLHAAPMAAERAVAFMDQVRAFQEQVDKLGRLQVDSAEYGCLKAIALFTPDACGLSDPAHVESLQEKAQVALTEYVRAQYPSQPQRFGRLLLRLPALRAVPASLISQLFFMRLVGKTPIETLIRDMLLSGSTFNWPYGSGQ
With B3, in the test with hPPARg1 promoter, the “Luc. act., normalized to lacZ” value is given as 32.5; the “Normalized Luc. act., normalized to control” value was 0.5; the “Results” value was found to be 0.47. In the test with mPer1 promoter, the “Luc. act., normalized to lacZ” value was 159.0; the “Normalized Luc. act., normalized to control” value came out at 1.1; the “luciferase activity normalized … mPer1” value is 1.10. In the test with mAdiponectin promoter, the “Luc. act., normalized to lacZ” value was found to be 71.0; the “Normalized Luc. act., normalized to control” value turned out to be 1.1; the “mAdiponectin promoter reporter activity” value is listed as 1.13. Further, in the test with RevErba promoter, the “Luc. act., normalized to lacZ” value is 19.1; the “Normalized Luc. act., normalized to control” value is 0.7; the “negative reciprocal of normalized Luc. act. (fold repression; Table 33)” value was −1.467; the “normalized Luc. act. on a logarithmic scale (column without head, Table 33)” value is reported as −0.17. In addition, the “mRevErba promoter reporter activity” value with RevErba promoter stood at 0.68. Moreover, in the test with mPgc1b promoter, the “Luc. act., normalized to lacZ” value is 4.9; the “Normalized Luc. act., normalized to control” value was determined as 0.4; the “luciferase activity normalized … mPgc1b” value was 0.42.

B4: CTF2: COUP-TF2 (NR2F2), cDNA driver (protein, UniProt P24468 1-414, looked up)
COUP transcription factor 2: MAMVVSTWRDPQDEVPGSQGSQASQAPPVPGPPPGAPHTPQTPGQGGPASTPAQTAAGGQGGPGGPGSDKQQQQQHIECVVCGDKSSGKHYGQFTCEGCKSFFKRSVRRNLSYTCRANRNCPIDQHHRNQCQYCRLKKCLKVGMRREAVQRGRMPPTQPTHGQFALTNGDPLNCHSYLSGYISLLLRAEPYPTSRFGSQCMQPNNIMGIENICELAARMLFSAVEWARNIPFFPDLQITDQVALLRLTWSELFVLNAAQCSMPLHVAPLLAAAGLHASPMSADRVVAFMDHIRIFQEQVEKLKALHVDSAEYSCLKAIVLFTSDACGLSDVAHVESLQEKSQCALEEYVRSQYPNQPTRFGKLLLRLPSLRTVSSSVIEQLFFVRLVGKTPIETLIRDMLLSGSSFNWPYMAIQ
For the molecule B4, in the test on hPPARg1 promoter, the “Luc. act., normalized to lacZ” value came to 43.9; the “Normalized Luc. act., normalized to control” value was determined as 0.6; the “Results” value was 0.64. Further, in the test on mPer1 promoter, the “Luc. act., normalized to lacZ” value is listed as 346.6; the “Normalized Luc. act., normalized to control” value stood at 2.4; the “luciferase activity normalized … mPer1” value is listed as 2.41. In the test on mAdiponectin promoter, the “Luc. act., normalized to lacZ” value worked out at 75.1; the “Normalized Luc. act., normalized to control” value was 1.2; the “mAdiponectin promoter reporter activity” value is reported as 1.20. For the same molecule, in the test with RevErba promoter, the “Luc. act., normalized to lacZ” value is recorded as 27.2; the “Normalized Luc. act., normalized to control” value is on record as 1.0; the “negative reciprocal of normalized Luc. act. (fold repression; Table 33)” value was −1.027; the “normalized Luc. act. on a logarithmic scale (column without head, Table 33)” value is given as −0.01. For the same molecule, the “mRevErba promoter reporter activity” value in the test with RevErba promoter is on record as 0.97. For the same molecule, in the test on mPgc1b promoter, the “Luc. act., normalized to lacZ” value is on record as 12.2; the “Normalized Luc. act., normalized to control” value amounted to 1.0; the “luciferase activity normalized … mPgc1b” value is given as 1.03.
